In article PMC128837 (BMC Biochemistry, 2002):

Biological target: T1, HA-Pop1p/His-Myc-Pop2p complexes (S. pombe, UniProt P87060 1-775; O14170 1-703)
T1 sequence 1: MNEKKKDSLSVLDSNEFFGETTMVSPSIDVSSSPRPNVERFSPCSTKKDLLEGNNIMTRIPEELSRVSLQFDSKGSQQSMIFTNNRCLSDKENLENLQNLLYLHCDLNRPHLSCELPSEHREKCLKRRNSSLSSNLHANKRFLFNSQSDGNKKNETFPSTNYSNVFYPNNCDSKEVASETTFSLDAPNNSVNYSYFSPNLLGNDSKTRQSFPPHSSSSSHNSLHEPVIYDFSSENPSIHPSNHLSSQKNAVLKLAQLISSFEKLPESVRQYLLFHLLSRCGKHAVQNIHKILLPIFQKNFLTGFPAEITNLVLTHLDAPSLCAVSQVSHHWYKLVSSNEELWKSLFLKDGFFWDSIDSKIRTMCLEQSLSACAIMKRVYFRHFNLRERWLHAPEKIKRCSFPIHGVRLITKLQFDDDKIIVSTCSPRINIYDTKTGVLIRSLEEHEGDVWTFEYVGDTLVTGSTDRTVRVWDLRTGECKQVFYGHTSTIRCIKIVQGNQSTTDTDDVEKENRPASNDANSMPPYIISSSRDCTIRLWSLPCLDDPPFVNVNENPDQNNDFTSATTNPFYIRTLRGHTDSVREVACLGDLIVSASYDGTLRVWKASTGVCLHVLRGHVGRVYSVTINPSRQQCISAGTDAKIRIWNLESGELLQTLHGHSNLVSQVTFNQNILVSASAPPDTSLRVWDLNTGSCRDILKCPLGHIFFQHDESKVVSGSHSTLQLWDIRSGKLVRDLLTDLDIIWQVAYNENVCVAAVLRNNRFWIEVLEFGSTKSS
T1 sequence 2: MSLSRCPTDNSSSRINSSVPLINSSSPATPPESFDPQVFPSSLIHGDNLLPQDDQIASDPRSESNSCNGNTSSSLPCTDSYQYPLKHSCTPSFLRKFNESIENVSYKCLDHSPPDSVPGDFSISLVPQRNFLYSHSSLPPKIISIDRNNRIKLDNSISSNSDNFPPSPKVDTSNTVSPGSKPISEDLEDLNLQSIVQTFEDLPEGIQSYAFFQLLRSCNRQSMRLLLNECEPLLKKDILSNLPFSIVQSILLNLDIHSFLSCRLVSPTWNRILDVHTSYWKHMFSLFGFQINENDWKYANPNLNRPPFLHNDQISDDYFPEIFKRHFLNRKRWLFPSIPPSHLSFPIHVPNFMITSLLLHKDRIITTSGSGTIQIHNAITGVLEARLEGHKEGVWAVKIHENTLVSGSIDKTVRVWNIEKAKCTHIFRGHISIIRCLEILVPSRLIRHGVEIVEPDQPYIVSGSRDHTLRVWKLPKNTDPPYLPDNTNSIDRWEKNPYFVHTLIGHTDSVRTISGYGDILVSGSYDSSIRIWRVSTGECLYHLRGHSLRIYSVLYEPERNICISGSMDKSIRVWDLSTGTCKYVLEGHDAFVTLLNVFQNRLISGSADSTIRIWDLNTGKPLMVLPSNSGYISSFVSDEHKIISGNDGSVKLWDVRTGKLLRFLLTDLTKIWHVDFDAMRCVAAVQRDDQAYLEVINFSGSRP
Test: pull-down

B1: bacterially expressed, phosphorylated Rum1p (natural protein)
chain: MEPSTPPMRGLCTPSTPESPGSFKGVIDASLEGNSSIMIDEIPESDLPAPQVSTFPPTPAKTPKKQLLPNLMLQDRSNSLERCMEEDREHNPFLSSSDNQLLSRKKRKPTPPPSDGLYYVFRGKRIKKSFRPGTDLSTFKPKLLFADSAPSSSSDNPTSSVDLNDYSQIGILPPNLNSIGNKMFSLKSRVPSSSSGSFVAPPPQMRLPAYSSPQKSRSNTKDENRHNLLR
modifications: phosphorylated by Cdc2p/Cig1p complexes with radiolabeled ATP; residues not stated for this preparation
  binding result: binds
